Test results as given in the Human Domainome abundance scans (Beltran et al. 2025).
± gives the uncertainty stated by the source.

B1: Gamma-crystallin S, residues 96 to 176; numbered along this chain, P22914 (parent)
chain: IQIFEKGDFSGQMYETTEDCPSIMEQFHMREIHSCKVLEGVWIFYELPNYRGRQYLLDKKEYRKPIDWGAASPAVQSFRRI

Variants of: B1
Assay: abundance fitness (aPCA) (normalised: wild type 0, dead -1); higher = more abundant; growth selection in yeast, the domain comes from the species named
Conditions: Homo sapiens

Variant | abundance fitness
IQIFEKGDFSGQMYETTEDCPSIMEQFHQREIHSCKVLEGVWIFYELPNYRGRQYLLDKKEYRKPIDWGAASPAVQSFRRI [M29Q] | 0.048 ± 0.14
IQIFEKGDFSGQMYETTEDCPSIMEQFHKREIHSCKVLEGVWIFYELPNYRGRQYLLDKKEYRKPIDWGAASPAVQSFRRI [M29K] | -0.006 ± 0.11
IQIFEKGDFSGQMYETTEDCPSIMEQFHMREIHSCKVLEGVWIFYELPNYRGRQYLLDKKEYRYPIDWGAASPAVQSFRRI [K64Y] | -0.026 ± 0.29
IQIFEKGDFSGQMYETTEDCPSIMEQFHMREIHSCKRLEGVWIFYELPNYRGRQYLLDKKEYRKPIDWGAASPAVQSFRRI [V37R] | 0.042 ± 0.037
IQIFEKGDFSGQMYETTEDCPSIMEQFHMRETHSCKVLEGVWIFYELPNYRGRQYLLDKKEYRKPIDWGAASPAVQSFRRI [I32T] | -0.027 ± 0.083
IQIFEKGDFSGQMYETTEDCPSIMEQFHMREIHSCKVLEGVWIFYELPNYRGKQYLLDKKEYRKPIDWGAASPAVQSFRRI [R53K] | 0.005 ± 0.076
IQIFEKGDFSGQMYETTEDCPSIMEQFHMREIHSCKVLEGVWIFYELPNYRGSQYLLDKKEYRKPIDWGAASPAVQSFRRI [R53S] | -0.084 ± 0.057
IQIFEKGDFSGQMYETTEDCPSTMEQFHMREIHSCKVLEGVWIFYELPNYRGRQYLLDKKEYRKPIDWGAASPAVQSFRRI [I23T] | -0.033 ± 0.16
IQIFEKGDFSGQMYETTEDCPSIMEQFHMREIHSCKVHEGVWIFYELPNYRGRQYLLDKKEYRKPIDWGAASPAVQSFRRI [L38H] | 0.043 ± 0.12
IQIFEKGDFSGQMYETTEDCPSIMEQFHMREIHSCKVPEGVWIFYELPNYRGRQYLLDKKEYRKPIDWGAASPAVQSFRRI [L38P] | 0.1 ± 0.06
IQIFEKGDFSCQMYETTEDCPSIMEQFHMREIHSCKVLEGVWIFYELPNYRGRQYLLDKKEYRKPIDWGAASPAVQSFRRI [G11C] | 0.066 ± 0.057
IYIFEKGDFSGQMYETTEDCPSIMEQFHMREIHSCKVLEGVWIFYELPNYRGRQYLLDKKEYRKPIDWGAASPAVQSFRRI [Q2Y] | -0.099 ± 0.15
IIIFEKGDFSGQMYETTEDCPSIMEQFHMREIHSCKVLEGVWIFYELPNYRGRQYLLDKKEYRKPIDWGAASPAVQSFRRI [Q2I] | 0.221 ± 0.41
IQIFEKGDFSGQMYETTEDCPSIMEQFHMREIHSCKVLELVWIFYELPNYRGRQYLLDKKEYRKPIDWGAASPAVQSFRRI [G40L] | -0.739 ± 0.1
IQIFEKGDFSGQMYETTEDCPSIMEQFHMREIHSCKVLEKVWIFYELPNYRGRQYLLDKKEYRKPIDWGAASPAVQSFRRI [G40K] | -0.337 ± 0.1
IQIFEKGDFSGQMYETTEDCPSIMEQFHMREIHSCKVLCGVWIFYELPNYRGRQYLLDKKEYRKPIDWGAASPAVQSFRRI [E39C] | -0.039 ± 0.081
IQIFEKGDFSGQMYETTEDCPSIMEQFHMREIHSCKVLDGVWIFYELPNYRGRQYLLDKKEYRKPIDWGAASPAVQSFRRI [E39D] | -0.028 ± 0.12

Variant | abundance fitness
IQIFEKGDFSGQMYETTEDCPSIMEQFHMREIHSCKVLEGVWIFYELPNYRGRQYLLDKKEYRKPIFWGAASPAVQSFRRI [D67F] | -0.036 ± 0.31
IQIFEKGDFSGQMYETTEDCPSIMEQFHMREIHSCKVLEGVWIFYELPNYRGRQYLLDKLEYRKPIDWGAASPAVQSFRRI [K60L] | -0.035 ± 0.13
IQIFEKGDFSGQMYETTEDCPSIMETFHMREIHSCKVLEGVWIFYELPNYRGRQYLLDKKEYRKPIDWGAASPAVQSFRRI [Q26T] | -0.047 ± 0.088
IQIFEKGDFSGQMYETTEDCPSIMEWFHMREIHSCKVLEGVWIFYELPNYRGRQYLLDKKEYRKPIDWGAASPAVQSFRRI [Q26W] | 0 ± 0.061
IQIFEKGDFSGQMYETTEDCPSIMEQFHMREIHSCKVLEGVWIFYELPNYRGRQYLLDKKEYRKPIDWGAASPAVQSSRRI [F78S] | -0.37 ± 0.21
IQIFEKGDFSGQMYETTEDCPSIMEQFHMREIHSCKVLEGVWIFYELPNYRGRQYLLDWKEYRKPIDWGAASPAVQSFRRI [K59W] | -0.084 ± 0.18
IQIFEKGDFSGQMYETTEDCPSIMEQFHMREIHSCKVLEGVWIFYELPNYRGRQYLLDQKEYRKPIDWGAASPAVQSFRRI [K59Q] | -0.022 ± 0.21
IQIFEKGDFSGQMYETTEDCPSIMEQFHMREIHSCKVLEGVWILYELPNYRGRQYLLDKKEYRKPIDWGAASPAVQSFRRI [F44L] | 0.005 ± 0.052
IQIFEKGDFSGQMYETTEDCPSIMEQFHMREIHSCKVLEGVWIFYELPNYRMRQYLLDKKEYRKPIDWGAASPAVQSFRRI [G52M] | -0.912 ± 0.13
IQIFEKGDFSGQMYETTEDCPSIMEQFHMREIHSCKVLEGVWIFYELPNYRCRQYLLDKKEYRKPIDWGAASPAVQSFRRI [G52C] | -0.631 ± 0.17
RQIFEKGDFSGQMYETTEDCPSIMEQFHMREIHSCKVLEGVWIFYELPNYRGRQYLLDKKEYRKPIDWGAASPAVQSFRRI [I1R] | -1.07 ± 0.23
HQIFEKGDFSGQMYETTEDCPSIMEQFHMREIHSCKVLEGVWIFYELPNYRGRQYLLDKKEYRKPIDWGAASPAVQSFRRI [I1H] | 0.005 ± 0.46
IQIFEKGDFSGQMYETTEDCPSIMEQFHMREIHSCKVLEGVWIFYEEPNYRGRQYLLDKKEYRKPIDWGAASPAVQSFRRI [L47E] | -0.004 ± 0.062
IQIFEKGDFSGQMQETTEDCPSIMEQFHMREIHSCKVLEGVWIFYELPNYRGRQYLLDKKEYRKPIDWGAASPAVQSFRRI [Y14Q] | 0.128 ± 0.097
IQIFEKGDFSGQMEETTEDCPSIMEQFHMREIHSCKVLEGVWIFYELPNYRGRQYLLDKKEYRKPIDWGAASPAVQSFRRI [Y14E] | 0.113 ± 0.2
IQIFEKKDFSGQMYETTEDCPSIMEQFHMREIHSCKVLEGVWIFYELPNYRGRQYLLDKKEYRKPIDWGAASPAVQSFRRI [G7K] | 0.079 ± 0.055
IQIFEKIDFSGQMYETTEDCPSIMEQFHMREIHSCKVLEGVWIFYELPNYRGRQYLLDKKEYRKPIDWGAASPAVQSFRRI [G7I] | 0.034 ± 0.14
